In patent publication US20090252717A1, “Compositions and Methods for Treating Polyglutamine-Expansion Neurodegenerative Diseases” (priority 2006, published 2009):

Legend:
[1] = system: fast axonal transport; assay: Vesicle motility assay in isolated squid axoplasm, perfusion of recombinant protein alone; format: cell-based, squid Loligo pealeii
Experimental: Recombinant Polypeptides. Wild-type androgen receptor and polyQ-AR polypeptides were produced by in vitro transcription/translation (TNT T7-Coupled Reticulocyte Lysate System; Promega, Madison, Wis.) according to manufacturer's protocols. Typically, 1.8 μg of plasmid was transcribed in 50 μl reaction mix. To assess protein levels, parallel reactions were performed incorporating ^35S-labeled methionine (Amersham) or quantitative immunoblots were performed. Protein concentrations were typically 0.2-0.5 nM. In vitro translated androgen receptor has been characterized and shown to be functional (Kuiper, et al. (1993) Biochem. J. 296(Pt 1):161-7). In vitro translation products were briefly centrifuged to eliminate translation machinery, and supernatants frozen in liquid N2 until used.
Genes encoding human wild-type Huntingtin (Htt) (i.e., Q20, residues 1-548; Szebenyi, et al. (2003) supra) and polyQ-expanded Htt (i.e., Q46, residues 1-949; Qin, et al. (2004) J. Neurosci. 24(1):269-81) were cloned into the pcDNA.3 vector and produced by in vitro transcription/translation as described for the androgen receptor. Alternatively, shorter constructs (Htt exon1) were expressed in E. coli as GST-tagged proteins.
Squid Axoplasm. Isolated squid axoplasm represents a unique experimental system to evaluate axonal-specific effects and pathogenic mechanisms. This model was instrumental in the original discovery of kinesin-1 (Brady (1985) Nature 317:73-75, novel pathways for fast axonal transport (Morfini, et al. (2002) supra; Morfini, et al. (2004) supra), and axonal-specific phosphorylation events (Grant & Pant (2000) J. Neurocytol. 29:843-72). Bidirectional membrane-bound organelle movements are observed with properties unchanged from intact axons for hours after removal of plasma membrane (Brady, et al. (1982) Science 218:1129-1131). Video-enhanced microscopic techniques allow quantitative analysis of membrane-bound organelle movement in fast axonal transport. Typical kinesin-dependent transport rates are 1.5-2.0 μm/s, whereas retrograde, cytoplasmic dynein-dependent rates are 1-1.3 μm/s in perfused axoplasms. These rates are maintained with little (<10%) or no reduction for >1 hour after perfusion with control buffer (Brady, et al. (1982) supra). The lack of permeability barriers allows perfusion of the axoplasm with a variety of effector molecules at known concentrations. Effectors of interest include nucleotides, pharmacological inhibitors, recombinant polypeptides, and antibodies. Typically, 6-His, Hemagglutinin, Myc and GST-tagged recombinant proteins are either expressed in bacteria or in vitro translated, purified and perfused (Szebenyi, et al. (2003) supra; Morfini, et al. (2002) supra).
Motility Studies in Isolated Axoplasm. Axoplasm was extruded from giant axons of the squid Loligo pealeii (Marine Biological Laboratory, Woods Hole, Mass.) as described (Brady, et al. (1985) Cell Motil. 5:81-101). Axons were 400-600 μm in diameter and provided ≈5 μl of axoplasm. […] Preparations were analyzed on a ZEISS AXIOMAT with a 100×, 1.3 n.a. objective, and DIC optics. […] Organelle velocities were measured with a Photonics Microscopy C2117 video manipulator (Hamamatsu).

[2] = biological target: T1, kinesin-1 heavy chain (Rattus norvegicus, UniProt P56536); assay: Binding of kinesin-1 to microtubules after JNK3 treatment; format: biochemical; conditions: kinesin-1 heavy chain treated with JNK3 kinase
T1 construct: coding for the first 584 amino acids of rat KHC (KHC-584); made in house; host or cells: E. coli
T1 sequence (P56536 1-584 limits assumed): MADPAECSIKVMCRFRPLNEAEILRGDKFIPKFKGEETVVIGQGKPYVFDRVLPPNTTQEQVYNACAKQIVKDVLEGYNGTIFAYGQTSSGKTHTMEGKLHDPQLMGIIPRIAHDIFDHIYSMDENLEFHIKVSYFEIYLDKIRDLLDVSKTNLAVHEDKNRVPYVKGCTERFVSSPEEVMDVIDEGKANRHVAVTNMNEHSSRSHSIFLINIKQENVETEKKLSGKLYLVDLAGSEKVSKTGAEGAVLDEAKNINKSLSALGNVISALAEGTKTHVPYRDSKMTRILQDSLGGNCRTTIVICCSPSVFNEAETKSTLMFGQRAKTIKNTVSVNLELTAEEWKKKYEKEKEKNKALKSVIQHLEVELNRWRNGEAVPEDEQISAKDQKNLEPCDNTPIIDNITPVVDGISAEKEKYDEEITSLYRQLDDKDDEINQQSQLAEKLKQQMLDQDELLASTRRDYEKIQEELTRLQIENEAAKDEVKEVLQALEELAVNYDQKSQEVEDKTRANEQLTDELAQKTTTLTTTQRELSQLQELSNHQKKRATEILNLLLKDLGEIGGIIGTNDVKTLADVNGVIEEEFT
Experimental: Microtubule Binding Assays. Microtubule binding assays was performed according to established methods (Stenoien & Brady (1997) supra). Briefly, three 70% confluent 100-mm culture dishes containing either wild-type or 902-6 SH-SY5Y cells were homogenized with 500 μl of HEM buffer (50 mM HEPES, 1 mM EGTA, 2 mM MgSO4, 1% TRITON X-100, pH 7.2, 1 μM staurosporine, 1 μM K252a, 50 nM okadaic acid and 1/100 mammalian protease inhibitor cocktail (Sigma) at 4° C. Lysates were centrifuged at 50000 rpm for 5 minutes at 4° C.
Six hundred μg of total protein from clarified wild-type or 902-6 SH-SY5Y cells were incubated with 0.2 mg of TAXOL-stabilized microtubules (Cytoskeleton, Denver, Colo.) and 2.5 mM AMP-PNP for 30 minutes at 37° C. Samples were centrifuged for 25 minutes at 50000 rpm (4° C.) over a cushion of 20% sucrose in HEM plus 20 μM TAXOL. Pellets and supernatants were collected and the amount of kinesin in each fraction was assayed by immunoblot with anti-kinesin monoclonal antibodies.
In Vitro Kinesin-1 Phosphorylation. A recombinant cDNA fragment coding for the first 584 amino acids of rat KHC (KHC-584) was subcloned into pET expression vector, expressed in E. coli and purified by nickel affinity chromatography (Qiagen, Valencia, Calif.). […]

[3] = perfused, concentration not given

B1: wild-type Htt: human wild-type Huntingtin (Q20, residues 1-548) produced by in vitro transcription/translation (protein, UniProt P42858 1-548, looked up, fragment)
chain: MATLEKLMKAFESLKSFQQQQQQQQQQQQQQQQQQQQQPPPPPPPPPPPQLPQPPPQAQPLLPQPQPPPPPPPPPPGPAVAEEPLHRPKKELSATKKDRVNHCLTICENIVAQSVRNSPEFQKLLGIAMELFLLCSDDAESDVRMVADECLNKVIKALMDSNLPRLQLELYKEIKKNGAPRSLRAALWRFAELAHLVRPQKCRPYLVNLLPCLTRTSKRPEESVQETLAAAVPKIMASFGNFANDNEIKVLLKAFIANLKSSSPTIRRTAAGSAVSICQHSRRTQYFYSWLLNVLLGLLVPVEDEHSTLLILGVLLTLRYLVPLLQQQVKDTSLKGSFGVTRKEMEVSPSAEQLVQVYELTLHHTQHQDHNVVTGALELLQQLFRTPPPELLQTLTAVGGIGQLTAAKEESGGRSRSGSIVELIAGGGSSCSPVLSRKQKGKVLLGEEEALEDDSESRSDVSSSALTASVKDEISGELAASSGVSTPGSAGHDIITEQPRSQHTLQADSVDLASCDLTSSATDGDEEDILSHSSSQVSAVPSDPAMDL
modifications: Q20
notes: human wild-type Huntingtin (Q20, residues 1-548) produced by in vitro transcription/translation
- effect on fast axonal transport ([1]; perfused alone): showed no effect on either direction of fast axonal transport

B2: JNK1: recombinant, active JNK1 protein (protein, UniProt P45983 1-427, looked up)
Mitogen-activated protein …: MSRSKRDNNFYSVEIGDSTFTVLKRYQNLKPIGSGAQGIVCAAYDAILERNVAIKKLSRPFQNQTHAKRAYRELVLMKCVNHKNIIGLLNVFTPQKSLEEFQDVYIVMELMDANLCQVIQMELDHERMSYLLYQMLCGIKHLHSAGIIHRDLKPSNIVVKSDCTLKILDFGLARTAGTSFMMTPYVVTRYYRAPEVILGMGYKENVDLWSVGCIMGEMVCHKILFPGRDYIDQWNKVIEQLGTPCPEFMKKLQPTVRTYVENRPKYAGYSFEKLFPDVLFPADSEHNKLKASQARDLLSKMLVIDASKRISVDEALQHPYINVWYDPSEAEAPPPKIPDKQLDEREHTIEEWKELIYKEVMDLEERTKNGVIRGQPSPLGAAVINGSQHPSSSSSVNDVSSMSTDPTLASDTDSSLEAAAGPLGCCR
- effect on fast axonal transport ([1]; perfused at 200 nM): did not show any effect on either direction of fast axonal transport

B3: JNK3: recombinant, active JNK3 protein (protein, UniProt P53779 1-464, looked up)
Mitogen-activated protein …: MSLHFLYYCSEPTLDVKIAFCQGFDKQVDVSYIAKHYNMSKSKVDNQFYSVEVGDSTFTVLKRYQNLKPIGSGAQGIVCAAYDAVLDRNVAIKKLSRPFQNQTHAKRAYRELVLMKCVNHKNIISLLNVFTPQKTLEEFQDVYLVMELMDANLCQVIQMELDHERMSYLLYQMLCGIKHLHSAGIIHRDLKPSNIVVKSDCTLKILDFGLARTAGTSFMMTPYVVTRYYRAPEVILGMGYKENVDIWSVGCIMGEMVRHKILFPGRDYIDQWNKVIEQLGTPCPEFMKKLQPTVRNYVENRPKYAGLTFPKLFPDSLFPADSEHNKLKASQARDLLSKMLVIDPAKRISVDDALQHPYINVWYDPAEVEAPPPQIYDKQLDEREHTIEEWKELIYKEVMNSEEKTKNGVVKGQPSPSGAAVNSSESLPPSSSVNDISSMSTDQTLASDTDSSLEASAGPLGCCR
- mean rate for anterograde fast axonal transport [1, 3]: 0.9 µM/s
- retrograde, cytoplasmic dynein-dependent fast axonal transport mean rate [1, 3]: 1.25 µM/s
- effect on binding of kinesin-1 to microtubules [2]: inhibits the binding of kinesin-1 to microtubules

B4: polyQ-Htt: polyQ-expanded Huntingtin (Q46, residues 1-949) produced by in vitro transcription/translation (protein, UniProt P42858 1-949, looked up, fragment)
chain: MATLEKLMKAFESLKSFQQQQQQQQQQQQQQQQQQQQQPPPPPPPPPPPQLPQPPPQAQPLLPQPQPPPPPPPPPPGPAVAEEPLHRPKKELSATKKDRVNHCLTICENIVAQSVRNSPEFQKLLGIAMELFLLCSDDAESDVRMVADECLNKVIKALMDSNLPRLQLELYKEIKKNGAPRSLRAALWRFAELAHLVRPQKCRPYLVNLLPCLTRTSKRPEESVQETLAAAVPKIMASFGNFANDNEIKVLLKAFIANLKSSSPTIRRTAAGSAVSICQHSRRTQYFYSWLLNVLLGLLVPVEDEHSTLLILGVLLTLRYLVPLLQQQVKDTSLKGSFGVTRKEMEVSPSAEQLVQVYELTLHHTQHQDHNVVTGALELLQQLFRTPPPELLQTLTAVGGIGQLTAAKEESGGRSRSGSIVELIAGGGSSCSPVLSRKQKGKVLLGEEEALEDDSESRSDVSSSALTASVKDEISGELAASSGVSTPGSAGHDIITEQPRSQHTLQADSVDLASCDLTSSATDGDEEDILSHSSSQVSAVPSDPAMDLNDGTQASSPISDSSQTTTEGPDSAVTPSDSSEIVLDGTDNQYLGLQIGQPQDEDEEATGILPDEASEAFRNSSMALQQAHLLKNMSHCRQPSDSSVDKFVLRDEATEPGDQENKPCRIKGDIGQSTDDDSAPLVHCVRLLSASFLLTGGKNVLVPDRDVRVSVKALALSCVGAAVALHPESFFSKLYKVPLDTTEYPEEQYVSDILNYIDHGDPQVRGATAILCGTLICSILSRSRFHVGDWMGTIRTLTGNTFSLADCIPLLRKTLKDESSVTCKLACTAVRNCVMSLCSSSYSELGLQLIIDVLTLRNSSYWLVRTELLETLAEIDFRLVSFLEAKAENLHRGAHHYTGLLKLQERVLNNVVIHLLGDEDPRVRHVAAASLIRLVPKLFYKCDQGQADP
modifications: polyQ expanded to Q46
notes: polyQ-expanded Huntingtin (Q46, residues 1-949) produced by in vitro transcription/translation
- effect on fast axonal transport ([1]; perfused alone): striking inhibition of fast axonal transport rates
